T1: FLAG-MAZ (Mus musculus, UniProt P56671 1-477)
T1 sequence: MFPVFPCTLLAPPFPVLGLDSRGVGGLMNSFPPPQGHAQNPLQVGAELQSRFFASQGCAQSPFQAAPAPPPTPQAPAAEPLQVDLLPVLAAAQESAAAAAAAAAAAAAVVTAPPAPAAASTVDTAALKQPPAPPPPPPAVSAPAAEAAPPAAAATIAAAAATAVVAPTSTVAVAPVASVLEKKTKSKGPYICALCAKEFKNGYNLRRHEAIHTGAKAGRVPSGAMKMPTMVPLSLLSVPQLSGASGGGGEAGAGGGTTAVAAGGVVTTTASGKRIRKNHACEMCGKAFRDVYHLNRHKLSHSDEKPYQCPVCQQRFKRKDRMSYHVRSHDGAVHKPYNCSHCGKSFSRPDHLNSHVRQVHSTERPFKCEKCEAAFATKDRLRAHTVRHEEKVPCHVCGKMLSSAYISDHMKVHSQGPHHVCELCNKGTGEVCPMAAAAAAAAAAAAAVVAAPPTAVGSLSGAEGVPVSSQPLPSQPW


Target: T1, FLAG-MAZ
Assay: EMSA; 1 mM ZnSO4, 5 mM MgCl2, salmon sperm DNA; 25 mM HEPES (pH not stated), 50 mM NaCl, 5% glycerol, 5 mM MgCl2, 1 mM ZnSO4, 2 μg salmon sperm DNA, 40 pM probe, 0.25-0.75 μg MAZ, 4 h at 30 °C; 5% gel, 0.25x
Details: protein: recombinant; tags: FLAG (CβF vector); label: 32P (T4 PNK); blunt

Binder	binding result
maz.hoxd48 (WT) (dsDNA) DNA 1: CCTGGGTGGGAGGGGAATGGGAGGACACAAGAGCCACCCGTTCTTCTGCCCCGCCTTCCACCTCAG DNA 2: CTGAGGTGGAAGGCGGGGCAGAAGAACGGGTGGCTCTTGTGTCCTCCCATTCCCCTCCCACCCAGG	binds
maz.hoxa56.WT (dsDNA) DNA 1: GGAGTTGGGTGGAGGCAAGAGGGGTGGCGCGCGCGCCCTG DNA 2: CAGGGCGCGCGCGCCACCCCTCTTGCCTCCACCCAACTCC	binds
